From patent US20220162306A1 come the findings set out here.

Several values for one entry are separate records, joined by “and”; a condition that tells them apart may be missing. Identical values can stand only once. Bounds are passed on as bounds.

Test [1] concerns the target receptors on circulating human B cells (CD32B and CD79B, the two targets of PRV-3279).
The target is the same in test [2]. Nature of the test: receptor occupancy on circulating B cells of dosed healthy subjects (FIG. 3B).
In test [3] the target is CD32B (Fc gamma receptor IIb) (human) (UniProt P31994). Briefly: cell-based or functional assay.
Sequence of CD32B (Fc gamma receptor IIb) (human) (P31994 43-310): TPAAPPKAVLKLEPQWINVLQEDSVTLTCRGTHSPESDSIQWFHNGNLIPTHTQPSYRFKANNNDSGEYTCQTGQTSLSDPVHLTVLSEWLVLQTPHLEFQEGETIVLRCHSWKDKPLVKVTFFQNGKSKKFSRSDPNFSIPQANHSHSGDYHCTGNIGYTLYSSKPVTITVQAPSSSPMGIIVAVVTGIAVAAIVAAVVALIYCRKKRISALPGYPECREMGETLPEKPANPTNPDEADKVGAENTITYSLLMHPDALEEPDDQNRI

“PRV-3279, a humanized CD32B×CD79B DART® protein (bispecific antibody)”: in test [1], the percent of available CD19+ B cells bound is more than 85% and the receptor occupancy is more than 50%. For the same substance, the percent of receptors occupied in test [2] is 70% and 75%. In test [3], this substance gave an inhibition of anti-human IgM stimulated B-cell proliferation (3H-thymidine incorporation), 100 nM PRV-3279, B cells of SLE patients with active or inactive disease of 60%; an inhibition of anti-human IgM stimulated B-cell proliferation (3H-thymidine incorporation), 100 nM PRV-3279, B cells of normal healthy volunteers and SLE patients of 60%.
